Test results from article PMC6849348, “Theranostic Application of a Novel G-Quadruplex-Forming DNA Aptamer Targeting Malate Synthase of Mycobacterium tuberculosis” (Molecular Therapy. Nucleic Acids, 2019).

Target: malate synthase (MS, GlcB) (Mycobacterium tuberculosis) (UniProt P9WK17)
Assay: SPR

malate synthase (MS, GlcB) (Mycobacterium tuberculosis), sequence (P9WK17 whole entry): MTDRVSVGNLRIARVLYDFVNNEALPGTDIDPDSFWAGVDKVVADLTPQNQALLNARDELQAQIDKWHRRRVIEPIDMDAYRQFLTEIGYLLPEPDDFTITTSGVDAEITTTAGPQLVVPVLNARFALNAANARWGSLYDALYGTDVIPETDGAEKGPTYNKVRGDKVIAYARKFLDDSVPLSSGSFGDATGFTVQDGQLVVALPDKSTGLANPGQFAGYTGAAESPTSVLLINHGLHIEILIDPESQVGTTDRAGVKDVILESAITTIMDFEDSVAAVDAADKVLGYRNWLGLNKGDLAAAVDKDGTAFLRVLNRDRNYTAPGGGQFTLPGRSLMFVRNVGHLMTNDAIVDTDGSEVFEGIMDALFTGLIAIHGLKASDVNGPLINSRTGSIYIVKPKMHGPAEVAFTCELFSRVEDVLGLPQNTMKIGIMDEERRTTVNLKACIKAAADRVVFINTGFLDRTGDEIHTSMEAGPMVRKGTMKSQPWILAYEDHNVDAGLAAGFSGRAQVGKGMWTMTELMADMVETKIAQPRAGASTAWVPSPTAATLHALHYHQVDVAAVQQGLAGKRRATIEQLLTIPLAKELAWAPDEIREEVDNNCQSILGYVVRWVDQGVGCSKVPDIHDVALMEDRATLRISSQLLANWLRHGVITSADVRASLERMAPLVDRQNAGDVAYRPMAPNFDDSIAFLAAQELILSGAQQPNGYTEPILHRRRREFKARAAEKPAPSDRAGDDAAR

| Sequence | Kd |
| --- | --- |
| GGGTTGTAAGAGGGAGCTGGGAGGGGTCGGGGGGGGGGGTGGC [MS20] | 910 nM |
| GCAGAGAGAGAGAAAGTGAGAAGGGCGGGGGGGAGAGGGTGGGG [MS5] | 2700 nM |
| GGACCAGGTGAGTGGATGCGGGTGCGGGTGGGGGTGAGGGGGGG [MS4] | 9.9 nM |
| GGTGGGATGGGGGGGGGAGGGTAGGGTGTGCAAGTAGAGGGTC [MS6] | 0.28 nM |
